Experimental data from patent US20250346651A1 (EMORY UNIVERSITY, published 2025).
Numbering of substitutions follows the chain as printed.

B1: 22-E2D4 (antibody, V domains shown)
VH: QVQLVQSGAEVKRPGSSVKVSCKASGDNFNNYAFHWVRQAPGQGLEWMGRTIPFLGLTSYSPNIQGRVSISADKSTATAFMEMSGLRSEDTAMYYCASSIRLGDFLYRASYYYSSPLDVWGQGTTVTVSS
VL: EVVLTQSPGTLSLSPGDRATLTCRAGQTISNSYLAWYQQKPGQAPRLLISGVSSRATGIPDRFSGSGSGTDFTLTISRLEPEDFAVYYCQLYGNSPSFGQGTRLEIK
B2: 22-E2B2 (antibody, V domains shown)
VH: QVQLVQSGTEVKKPGASVRVSCKASGYTFTEYYLHWVRQAPGQGLEWMGRINPNSGNTNYAQKFNGRVTMTSDTSVNLAYLEVSGLTSDDTAIYYCTRDDSGAFVYWGQGTLVTVSS
VL: ETVLTQSPATLSLSPGERATLSCRSSQVISSYLAWFQQKPGQAPRLLIYDTSNRATGIPARFSGSGSGTDFTLTISSLEPEDFAVYYCQQRTNWPPREKITFGPGTKVDIK
B3: 22-E2F7 (antibody, V domains shown)
VH: B2 VH with T28S, N54K, F64L, L78V, S101N
VL: B2 VL with T92I, K111R
B4: 22-E2G5 (antibody, V domains shown)
VH: EVQVVESGGGLVQPGGSLRLSCAASGFTVNSKFMTWVRQAPGTGLECVSIIYNDGSTYYADSVKGRFTISRDNSKNTLYLQMNRLRPEDTAVYFCARRAFFGGNDDFDIWGQGTLVTVSS
VL: EIVLTQSPGTLSLSPGDRATLSCRAGQSVSSSFLAWYQQRPGQPPRLLIYGASSRATDIPDRFSGSGSGTDFTLTISRLEPEDFAVYYCHQYSSSLPTFGPGTKVEIK
B5: 22-E2C5 (antibody, V domains shown)
VH: QVQLVQSGAEVKKPGASVKVSCRTSGYSFTRYYIHWVRQSPGRGLEWMGIIDPNNGGTTSAKTLLGKVSMTRDTSTSTAHLELTSLGPEDTAVYYCAILYSNGLEVWDYWGQGTLVTVSS
VL: SHELTQPPSVSVSPGQTAQITCSGDTLPDNYAYWYQQRSGQAPVLVVYEDNKRPSGIPERFSGSSSGTMATLTISGAQVEDDADYYCYSSDRSNNFFGGGTKLTVLS
B6: 21-1H3 (antibody, V domains shown)
VH: QVQLVQSGAEVKKPGSSVKVSCKASGGTFANSGVAWVRQAPGQGLEWMGGLIPVFGAADYAQKFRGRLSITADESSTTAFMELDSLRSDDTAVYYCAKDHFTYNKYFSWFDPWGQGTLVIVSS
VL: QTVVTQEPSLSVSPGGTVTLTCALSSGSVSTSYYPSWYQQTPGQAPRTLIYSTNLRSSGVPDRFSGSILGNKAALTITGAQADDECDYYCVLFMGSGISMFGGGTKLTVL
B7: 22-1B10 (antibody, V domains shown)
VH: QVQLVQSGSELRKPGASVTVSCKASGYTFSNHDMSWVRQAPGQGLEWMGWINSNTGNPTYAQGFTGRFVFSLDTSVSTAYLQISSLKSEDTAVYYCAKGGGICSGSRCYSGWFDSWGKGTLVAVSS
VL: QLVLTQSPSASASLGASVKLTCTLSSGHSGYAIAWHQQQPEKGPRYLMKLNSDGTHTKGDGIPDRFSGSSSGAERYLTISSLQSEDEADYYCQTWGTGIQVFGTGTKVTILG
B8: 21-1E2 (antibody, V domains shown)
VH: DVQLAESGGGLVQPGDSLTLSCAASGFIFNNYFMSWVRQTPGKGLEWVSGISANGERSIYADSVKGRFTISRDNSKKTVSLQMNSLSAEDTAIYYCARAGCDSTSCYARVGWFGPWGQGILVTVSS
VL: DVVMTQSPDSLAVSLGERATLNCKSRESVLYTTNNRNYLAWYQQKPGQPPKLLIYWASTRESGVPDRFSGSGSGTDFSLTISSLQAEDVAVYYCQQYLTTPPTFGQGTKVEIK

Legend:
[1] = target: T1, recombinant MBP-E2 fusion protein (Human papillomavirus type 16, UniProt P03120 1-365, limits assumed); test: ELISA, plate coated with MBP-E2, purified antibody
T1 construct: The legend says only 'MBP-E2'
T1 sequence: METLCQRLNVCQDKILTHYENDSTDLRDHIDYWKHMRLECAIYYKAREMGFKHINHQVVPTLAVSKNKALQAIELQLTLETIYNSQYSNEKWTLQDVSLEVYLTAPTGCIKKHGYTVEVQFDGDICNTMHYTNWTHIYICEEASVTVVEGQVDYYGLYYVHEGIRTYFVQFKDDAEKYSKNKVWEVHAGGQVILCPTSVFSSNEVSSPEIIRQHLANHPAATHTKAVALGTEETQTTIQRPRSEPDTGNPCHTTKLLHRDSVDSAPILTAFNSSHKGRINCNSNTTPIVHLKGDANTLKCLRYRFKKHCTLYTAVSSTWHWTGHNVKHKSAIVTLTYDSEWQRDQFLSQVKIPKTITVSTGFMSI
Experimental: ELISA plates coated with recombinant MBP-E2 fusion protein were incubated with purified human monoclonal antibodies.

[2] = target: T2, recombinant MBP-E6 fusion protein (Human papillomavirus type 16, UniProt P03126 1-158); test: ELISA, plate coated with MBP-E6, purified antibody
T2 construct: The legend says only 'MBP-E6'
T2 sequence (P03126 whole entry, the tested form may be a part): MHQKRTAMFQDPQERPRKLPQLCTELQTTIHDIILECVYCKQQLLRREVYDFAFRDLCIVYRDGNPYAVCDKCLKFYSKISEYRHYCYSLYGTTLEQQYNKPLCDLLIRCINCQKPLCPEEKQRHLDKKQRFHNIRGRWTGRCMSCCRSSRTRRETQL
Experimental: ELISA plates coated with recombinant MBP-E6 fusion protein were incubated with purified human monoclonal antibodies.

Binder	binding result [1]	binding result [2]
B1	binds	–
B2	binds	–
B3	binds	–
B4	binds	–
B5	binds	–
B6	–	binds
B7	binds	–
B8	–	binds
